Experimental data taken from paper PMC4174574.

Molecular target: Mcl-1 (myeloid cell leukemia-1), recombinant protein (UniProt Q07820)
Assay: SPR

- IC50: 62 nM
Substance: Noxa BH3 peptide
